Tests used:
[1] = target: Bcl-BΔC27 (C-terminally truncated Bcl-B, residues A2–A167, cysteines 20 and 128 mutated to serine) (human); assay: SPR
[2] = target: T1, Bcl-B:Bim complex (Homo sapiens, UniProt Q9HD36, C138S/C30S); assay: SPR competition assay: displacement of Bim-BH3 from the Bcl-B:6His-Bim complex; assay type: binding; conditions: BH3 peptides between 1.25 and 40 μM
T1 sequence (Q9HD36 12-177 C30S/C138S): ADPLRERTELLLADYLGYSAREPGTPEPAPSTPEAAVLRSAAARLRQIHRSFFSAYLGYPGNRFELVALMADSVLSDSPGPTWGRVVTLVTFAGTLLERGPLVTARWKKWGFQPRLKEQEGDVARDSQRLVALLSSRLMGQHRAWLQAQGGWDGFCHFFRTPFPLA

[3] = tested on: Bcl-B; conditions: cited from earlier work

| IC50 [1] | Displacement of Bim from the Bcl-B:Bim complex [2] | Compound | Binding to Bcl-B [3] |
| --- | --- | --- | --- |
| 6.6 µM |  | Bax-BH3 peptide |  |
|  | failed to displace Bim | CN(C)CC[C@H](CSc1ccccc1)Nc1ccc(S(=O)(=O)NC(=O)c2ccc(N3CCN(Cc4ccccc4-c4ccc(Cl)cc4)CC3)cc2)cc1[N+](=O)[O-] [ABT-737] | does not bind Bcl-B |
| 113 µM |  | Bik-BH3 peptide |  |

— publication PMC3542614 (Cell Death & Disease, 2012)
